{"source": "patent US20100256040A1", "about": "(priority 2001, published 2010)", "biological_target": "T1, interaction between GST-p6 and myc-Tsg101(1-207) (Homo sapiens, UniProt Q99816)", "T1 construct": "myc-tagged Tsg101 (residues 1-207); made in house; host or cells: Drosophila S2 cells, with Tsg101 used as crude cell lysate", "T1 sequence (Q99816 1-207)": "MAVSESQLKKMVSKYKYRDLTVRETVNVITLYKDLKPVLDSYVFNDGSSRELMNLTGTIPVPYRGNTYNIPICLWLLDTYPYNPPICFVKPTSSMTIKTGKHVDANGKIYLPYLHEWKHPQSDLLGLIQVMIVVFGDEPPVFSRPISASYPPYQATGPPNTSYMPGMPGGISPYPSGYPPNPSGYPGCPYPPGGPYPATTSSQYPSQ", "assay": "Competitive inhibition of GST-p6 : myc-Tsg101(1-207) binding on plates (fluorescence detection)", "details": "competitive inhibition curve, FIG. 1", "method": "A fusion protein with a GST tag fused to the HIV-1 GAGp6 domain was recombinantly expressed and purified by chromatography. In addition, a GAGp6 peptide containing the first 14 amino acid residues (“p6(1-14)”) was synthesized chemically by standard peptide synthesis methods. The peptide was purified by conventional protein purification techniques, e.g., by chromatography.\nNunc/Nalgene Maxisorp plates were incubated overnight at 4° C. or for 1-2 hrs at room temperature in 100 μl of a protein coupling solution containing purified GST-p6 and 50 mM Carbonate, pH=9.6. This allowed the attachment of the GST-p6 fusion protein to the plates. Liquids in the plates were then emptied and wells filled with 400 μl/well of a blocking buffer (SuperBlock; Pierce-Endogen, Rockford, Ill.). […]\nPlates were then washed 4×100 μl with 1×PBST solution (Invitrogen; Carlsbad, Calif.). […] Plates were then read on a Packard Fusion instrument at an excitation wavelength of 325 nm and an emission wavelength of 420 nm. […]\nDifferent concentrations of the p6(1-14) peptide were tested, and the relative intensities of the fluorescence signals obtained at different concentrations were plotted against the peptide concentrations. […]", "data": [{"substance": "p6(1-14): chemically synthesized GAGp6 peptide containing the first 14 amino acid residues (LQSRPEPTAPPEES)", "values": [{"measurement": "inhibition of protein-protein interaction between GST-p6 and myc-Tsg101(1-207)", "value": "capable of inhibiting protein-protein interaction"}]}]}
